Data taken from paper PMC9638971.

Key:
[1] = biological target: fluorescein-5-maleimide-labelled wild-type lipase A (P. aeruginosa PAO1) (UniProt P26876)
[2] = biological target: lipase A (LipA) from Pseudomonas aeruginosa PAO1, wild type (P. aeruginosa PAO1) (UniProt P26876)
[3] = biological target: periplasmic chaperone FkpA of P. aeruginosa (P. aeruginosa PAO1); experiment: SEC-MALS; isolated chaperones at 2 mg/ml, Superdex 200 Increase 10/300 GL; FkpA, SurA and PpiD in 50 mM KCl, 5 mM MgCl2, 20 mM HEPES-KOH pH 7.4; YfgM in 5 mM glycine, 20 mM NaCl, 5 mM Tris-HCl pH 8.5; Skp in 100 mM NaCl, 20 mM Tris-HCl pH 8.0; LipH in 100 mM NaCl, 200 µM TCEP, 50 mM Tris-HCl pH 8.0
[4] = biological target: periplasmic chaperone Skp of P. aeruginosa (P. aeruginosa PAO1); experiment: as above
[5] = biological target: periplasmic chaperone Skp of P. aeruginosa (P. aeruginosa PAO1); experiment: SAXS; Skp at 1.20 mg/ml, 15 °C; ab initio reconstitution with P3 symmetry (GASBOR)
[6] = biological target: lipase A mutant LipA_(F144E) (P. aeruginosa PAO1) (UniProt P26876); experiment: SEC-MALS; LipA_(F144E):Skp mixture (molar ratio 1:3) compared with Skp3 alone; SDS-PAGE and densitometry of the peak fractions
[7] = biological target: fluorescein-5-maleimide-labelled wild-type lipase A (P. aeruginosa PAO1) (UniProt P26876); remark: listed apart in the source
[8] = biological target: lipase A (LipA) from Pseudomonas aeruginosa PAO1, wild type (P. aeruginosa PAO1) (UniProt P26876); remark: listed apart in the source
[9] = biological target: fluorescein-5-maleimide-labelled lipase A mutant LipA_(F144E) (P. aeruginosa PAO1) (UniProt P26876); experiment: MST; FM-labelled LipA_(F144E) kept constant, Skp titrated (monomer concentrations); TGCG buffer with 0.05% Tween 20; 15 min at 22°C; Monolith NT.115

lipase-specific foldase LipH lacking the TMD (domain or fragment)
soluble fraction of LipA in the sedimentation assay, 150 mM NaCl, LipA:LipH molar ratio 1:1 [1]: > 80% | inhibition of pNPB hydrolysis by wild-type LipA with LipH and Skp3 added simultaneously (LipA:LipH:chaperone 1:1:5, 50 mM NaCl) [2]: < 10%

periplasmic chaperone FkpA of P. aeruginosa (natural protein)
stoichiometry N [3]: 2

periplasmic chaperone Skp of P. aeruginosa (natural protein)
stoichiometry N [4]: 3 | stoichiometry N [5]: 3 | LipA:Skp3 ratio by densitometry of the peak fractions (Skp3 per LipA) [6]: 3 | stoichiometry N (Skp3 per LipA) [6]: 2 | soluble fraction of LipA in the sedimentation assay at LipA:Skp3 molar ratios 1:10, 1:3 and 1:1; value at 1:10 and 1:3, dropped dramatically at 1:1 [7]: > 70% | soluble fraction of LipA in the sedimentation assay, 150 mM NaCl, 0.5 µM LipA and 5 µM Skp3 [1]: 66% | decrease in ThT fluorescence of LipA aggregates in the presence of Skp3 (0.5 µM LipA, 5 µM Skp3) [8]: 75% | KD of the first (high-affinity) binding mode [9]: 20 nM | KD of the second (low-affinity) binding mode [9]: 2000 nM
